One test deals with M1R L131A (UniProt P11229).
A further test deals with M2R L129A (UniProt P08172).

Data on two substances can be found in publication PMC7034192.

Sequence of UniProt P08172 (P08172 whole entry L129A): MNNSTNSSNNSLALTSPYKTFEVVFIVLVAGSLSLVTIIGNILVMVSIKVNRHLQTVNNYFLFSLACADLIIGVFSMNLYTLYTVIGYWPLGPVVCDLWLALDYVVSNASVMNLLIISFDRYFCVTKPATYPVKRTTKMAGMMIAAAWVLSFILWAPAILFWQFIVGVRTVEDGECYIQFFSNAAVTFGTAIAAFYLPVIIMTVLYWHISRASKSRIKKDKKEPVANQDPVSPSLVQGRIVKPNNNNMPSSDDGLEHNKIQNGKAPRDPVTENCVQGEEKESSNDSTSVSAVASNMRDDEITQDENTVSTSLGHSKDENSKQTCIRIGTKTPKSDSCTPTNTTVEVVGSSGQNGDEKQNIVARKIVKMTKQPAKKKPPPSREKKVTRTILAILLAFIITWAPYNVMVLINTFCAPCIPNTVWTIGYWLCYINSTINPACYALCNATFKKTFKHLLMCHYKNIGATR

“G_(11iN) heterotrimer (Gα_(11iN), Gβ1, Gγ2) (from UniProt P63096 1-29; P29992 36-359; P62873 2-340; P59768 1-71) (complex)” showed a coupling with G11, percent of wild type (fig. S10) (% of wild type) with M1R L131A of 17.

In the test with M2R L129A, “G_(oAiN) heterotrimer (Gα_(oAiN), Gβ1, Gγ2) (from UniProt P09471 1-354; P62873 2-340; P59768 1-71) (complex)” came in with a coupling to GoA, percent of wild type (fig. S10) (% of wild type) of 49.
